Assay results published in the supplement of paper PMC5998384.

Key:
[1] = test system: HeLa Kyoto; assay: solubility in G1/S (NP-40 vs SDS abundance) (log2 ratio); higher = more soluble; details: cell cycle stage: G1/S
[2] = test system: HeLa Kyoto; assay: thermal stability score vs G1/S (z-score of summed log2 fold changes over temperatures); higher = more thermally stable than in G1/S
[3] = test system: HeLa Kyoto; assay: melting temperature (median over replicates), in situ; higher = more thermally stable
[4] = test system: HeLa Kyoto; assay: solubility change mitosis vs G1/S (difference of NP-40 vs SDS log2 ratios) (log2 ratio difference); higher = more soluble in mitosis
[5] = cell cycle stage: early G1 (4.5 h after nocodazole release)
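Throughout, for melting temperature (median over replicates), in situ: HeLa Kyoto cells synchronized by double thymidine or nocodazole block, proteins quantified by TMT10plex mass spectrometry, three independent biological replicates.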
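Throughout, for solubility change mitosis vs G1/S (difference of NP-40 vs SDS log2 ratios): synchronized HeLa Kyoto cells (double thymidine block for G1/S, nocodazole release for mitosis), protein amounts in NP-40 versus SDS lysates quantified by mass spectrometry, three biological replicates.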
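Throughout, for solubility in G1/S (NP-40 vs SDS abundance): HeLa Kyoto cells arrested at G1/S by double thymidine block, proteins quantified by TMT10plex mass spectrometry in mild NP-40 versus SDS extracts, three biological replicates.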
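Throughout, for thermal stability score vs G1/S (z-score of summed log2 fold changes over temperatures): synchronized HeLa Kyoto cells, proteins quantified by TMT10plex mass spectrometry, three biological replicates, mitosis taken 0.5 h after nocodazole release, G1/S directly after double thymidine block.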

Row | Sequence | solubility in G1/S (log2) [1] | thermal stability score [2, 5] | thermal stability score ([2]; cell cycle stage: mitosis) | melting temperature ([3]; cell cycle stage: G1/S) [°C] | melting temperature ([3]; cell cycle stage: mitosis) [°C] | solubility change mitosis (log2) [4]
1 | MADQLYLENIDEFVTDQNKIVTYKWLSYTLGVHVNQAKQMLYDYVERKRKENSGAQLHVTYLVSGSLIQNGHSCHKVAVVREDKLEAVKSKLAVTASIHVYSIQKAMLKDSGPLFNTDYDILKSNLQNCSKFSAIQCAAAVPRAPAESSSSSKKFEQSHLHMSSETQANNELTTNGHGPPASKQVSQQPKGIMGMFASKAAAKTQETNKETKTEAKEVTNASAAGNKAPGKGNMMSNFFGKAAMNKFKVNLDSEQAVKEEKIVEQPTVSVTEPKLATPAGLKKSSKKAEPVKVLQKEKKRGKRVALSDDETKETENMRKKRRRIKLPESDSSEDEVFPDSPGAYEAESPSPPPPPSPPLEPVPKTEPEPPSVKSSSGENKRKRKRVLKSKTYLDGEGCIVTEKVYESESCTDSEEELNMKTSSVHRPPAMTVKKEPREERKGPKKGTAALGKANRQVSITGFFQRK [POLD3] | 0.0553 | 0.776 | 2.8 | 47 | 48.1 | -0.0027
2 | MAAVKDSCGKGEMATGNGRRLHLGIPEAVFVEDVDSFMKQPGNETADTVLKKLDEQYQKYKFMELNLAQKKRRLKGQIPEIKQTLEILKYMQKKKESTNSMETRFLLADNLYCKASVPPTDKVCLWLGANVMLEYDIDEAQALLEKNLSTATKNLDSLEEDLDFLRDQFTTTEVNMARVYNWDVKRRNKDDSTKNKA [VBP1] | 0.453 | -3.96 | -5.3 | 53.1 | 53.4 | 0.513
3 | MSGTNLDGNDEFDEQLRMQELYGDGKDGDTQTDAGGEPDSLGQQPTDTPYEWDLDKKAWFPKITEDFIATYQANYGFSNDGASSSTANVEDVHARTAEEPPQEKAPEPTDARKKGEKRKAESGWFHVEEDRNTNVYVSGLPPDITVDEFIQLMSKFGIIMRDPQTEEFKVKLYKDNQGNLKGDGLCCYLKRESVELALKLLDEDEIRGYKLHVEVAKFQLKGEYDASKKKKKCKDYKKKLSMQQKQLDWRPERRAGPSRMRHERVVIIKNMFHPMDFEDDPLVLNEIREDLRVECSKFGQIRKLLLFDRHPDGVASVSFRDPEEADYCIQTLDGRWFGGRQITAQAWDGTTDYQVEETSREREERLRGWEAFLNAPEANRGLRRSDSVSASERAGPSRARHFSEHPSTSKMNAQETATGMAFEEPIDEKKFEKTEDGGEFEEGASENNAKESSPEKEAEEGCPEKESEEGCPKRGFEGSCSQKESEEGNPVRGSEEDSPKKESKKKTLKNDCEENGLAKESEDDLNKESEEEVGPTKESEEDDSEKESDEDCSEKQSEDGSEREFEENGLEKDLDEEGSEKELHENVLDKELEENDSENSEFEDDGSEKVLDEEGSEREFDEDSDEKEEEEDTYEKVFDDESDEKEDEEYADEKGLEAADKKAEEGDADEKLFEESDDKEDEDADGKEVEDADEKLFEDDDSNEKLFDEEEDSSEKLFDDSDERGTLGGFGSVEEGPLSTGSSFILSSDDDDDDI [HTATSF1] | -0.256 | 5.21 | 9.34 | 47.4 | 49.4 | -0.0715
4 | MSLSHLYRDGEGRIDDDDDERENFEITDWDLQNEFNPNRQRHWQTKEEATYGVWAERDSDDERPSFGGKRARDYSAPVNFISAGLKKGAAEEAELEDSDDEEKPVKQDDFPKDFGPRKLKTGGNFKPSQKGFAGGTKSFMDFGSWERHTKGIGQKLLQKMGYVPGRGLGKNAQGIINPIEAKQRKGKGAVGAYGSERTTQSMQDFPVVDSEEEAEEEFQKELSQWRKDPSGSKKKPKYSYKTVEELKAKGRISKKLTAPQKELSQVKVIDMTGREQKVYYSYSQISHKHNVPDDGLPLQSQQLPQSGKEAKAPGFALPELEHNLQLLIDLTEQEIIQNDRQLQYERDMVVNLFHELEKMTEVLDHEERVISNLSKVLEMVEECERRMQPDCSNPLTLDECARIFETLQDKYYEEYRMSDRVDLAVAIVYPLMKEYFKEWDPLKDCTYGTEIISKWKSLLENDQLLSHGGQDLSADAFHRLIWEVWMPFVRNIVTQWQPRNCDPMVDFLDSWVHIIPVWILDNILDQLIFPKLQKEVENWNPLTDTVPIHSWIHPWLPLMQARLEPLYSPIRSKLSSALQKWHPSDSSAKLILQPWKDVFTPGSWEAFMVKNIVPKLGMCLGELVINPHQQHMDAFYWVIDWEGMISVSSLVGLLEKHFFPKWLQVLCSWLSNSPNYEEITKWYLGWKSMFSDQVLAHPSVKDKFNEALDIMNRAVSSNVGAYMQPGARENIAYLTHTERRKDFQYEAMQERREAENMAQRGIGVAASSVPMNFKDLIETKAEEHNIVFMPVIGKRHEGKQLYTFGRIVIYIDRGVVFVQGEKTWVPTSLQSLIDMAK [TFIP11] | -0.472 | 0.21 | 1.2 | 48.4 | 48.9 | 0.115
5 | MECPHLSSSVCIAPDSAKFPNGSPSSWCCSVCRSNKSPWVCLTCSSVHCGRYVNGHAKKHYEDAQVPLTNHKKSEKQDKVQHTVCMDCSSYSTYCYRCDDFVVNDTKLGLVQKVREHLQNLENSAFTADRHKKRKLLENSTLNSKLLKVNGSTTAICATGLRNLGNTCFMNAILQSLSNIEQFCCYFKELPAVELRNGKTAGRRTYHTRSQGDNNVSLVEEFRKTLCALWQGSQTAFSPESLFYVVWKIMPNFRGYQQQDAHEFMRYLLDHLHLELQGGFNGVSRSAILQENSTLSASNKCCINGASTVVTAIFGGILQNEVNCLICGTESRKFDPFLDLSLDIPSQFRSKRSKNQENGPVCSLRDCLRSFTDLEELDETELYMCHKCKKKQKSTKKFWIQKLPKVLCLHLKRFHWTAYLRNKVDTYVEFPLRGLDMKCYLLEPENSGPESCLYDLAAVVVHHGSGVGSGHYTAYATHEGRWFHFNDSTVTLTDEETVVKAKAYILFYVEHQAKAGSDKL [USP3] | -0.0307 | 0.817 | 1.54 | 49.4 | 49.4 | -0.13
6 | MPLFATNPFDQDVEKATSEMNTAEDWGLILDICDKVGQSRTGPKDCLRSIMRRVNHKDPHVAMQALTLLGACVSNCGKIFHLEVCSRDFASEVSNVLNKGHPKVCEKLKALMVEWTDEFKNDPQLSLISAMIKNLKEQGVTFPAIGSQAAEQAKASPALVAKDPGTVANKKEEEDLAKAIELSLKEQRQQSTTLSTLYPSTSSLLTNHQHEGRKVRAIYDFEAAEDNELTFKAGEIITVLDDSDPNWWKGETHQGIGLFPSNFVTADLTAEPEMIKTEKKTVQFSDDVQVETIEPEPEPAFIDEDKMDQLLQMLQSTDPSDDQPDLPELLHLEAMCHQMGPLIDEKLEDIDRKHSELSELNVKVMEALSLYTKLMNEDPMYSMYAKLQNQPYYMQSSGVSGSQVYAGPPPSGAYLVAGNAQMSHLQSYSLPPEQLSSLSQAVVPPSANPALPSQQTQAAYPNTMVSSVQGNTYPSQAPVYSPPPAATAAAATADVTLYQNAGPNMPQVPNYNLTSSTLPQPGGSQQPPQPQQPYSQKALL [STAM] | 0.292 | 0.119 | 0.654 | 50.3 | 52 | -0.163
7 | MTELQSALLLRRQLAELNKNPVEGFSAGLIDDNDLYRWEVLIIGPPDTLYEGGVFKAHLTFPKDYPLRPPKMKFITEIWHPNVDKNGDVCISILHEPGEDKYGYEKPEERWLPIHTVETIMISVISMLADPNGDSPANVDAAKEWREDRNGEFKRKVARCVRKSQETAFE [UBE2G1] | 0.543 | -0.274 | 0.392 | 51.7 | 53 | 0.0506
8 | MSDKSELKAELERKKQRLAQIREEKKRKEEERKKKETDQKKEAVAPVQEESDLEKKRREAEALLQSMGLTPESPIVFSEYWVPPPMSPSSKSVSTPSEAGSQDSGDGAVGSRTLHWDTDPSVLQLHSDSDLGRGPIKLGMAKITQVDFPPREIVTYTKETQTPVMAQPKEDEEEDDDVVAPKPPIEPEEEKTLKKDEENDSKAPPHELTEEEKQQILHSEEFLSFFDHSTRIVERALSEQINIFFDYSGRDLEDKEGEIQAGAKLSLNRQFFDERWSKHRVVSCLDWSSQYPELLVASYNNNEDAPHEPDGVALVWNMKYKKTTPEYVFHCQSAVMSATFAKFHPNLVVGGTYSGQIVLWDNRSNKRTPVQRTPLSAAAHTHPVYCVNVVGTQNAHNLISISTDGKICSWSLDMLSHPQDSMELVHKQSKAVAVTSMSFPVGDVNNFVVGSEEGSVYTACRHGSKAGISEMFEGHQGPITGIHCHAAVGAVDFSHLFVTSSFDWTVKLWTTKNNKPLYSFEDNADYVYDVMWSPTHPALFACVDGMGRLDLWNLNNDTEVPTASISVEGNPALNRVRWTHSGREIAVGDSEGQIVIYDVGEQIAVPRNDEWARFGRTLAEINANRADAEEEAATRIPA [DYNC1I2] | -0.0277 | -2.66 | -3.05 | 53.2 | 52.3 | -0.0123
